Data on 11 molecules can be found in publication PMC9922994, “Comprehensive screening strategy coupled with structure-guided engineering of L-threonine aldolase from Pseudomonas putida for enhanced catalytic efficiency towards L-threo-4-methylsulfonylphenylserine” (Frontiers in Bioengineering and Biotechnology, 2023).

The labels stand for the following.
B1: L-PpTA (Pseudomonas putida KT2440) (protein)
chain: MTDKSQQFASDNYSGICPEAWVAMEKANRGHDRAYGDDQWTERASEYFRNLFETDCEVFFAFNGTAANSLALASLCQSYHSVICSETAHVETDECGAPEFFSNGSKLLTAASVNGKLTPQSIREVALKRQDIHYPKPRVVTITQATEVGTVYRPDELKAISATCKELGLNLHMDGARFTNACAFLGCSPAELTWKAGVDVLCFGGTKNGMAVGEAILFFNRQLAEDFDYRCKQAGQLASKMRFLSAPWVGLLEDGAWLRHGNHANHCAQLLASLVSDLPGVELMFPVEANGVFLQMPEHAIEALRGKGWRFYTFIGSGGARFMCSWDTEEARVRELAADIRTIIGG
notes: E. coli BL21(DE3); HisTrap, Resource Q, Superdex 200

Substrate in the first data set: NCC(=O)O
Put plainly: purified protein. Format: biochemical, Pseudomonas putida. The note with it: glycine varied 2.5-50 mM, co-substrate 4-methylsulfonylbenzaldehyde, PLP, HEPES-NaOH pH 8.0, 30 °C.
By Km is commonly meant the substrate concentration at which the rate is half of its maximum. What is called kcat is the number of substrate molecules converted per active site and unit of time at saturation. As usually defined, the kcat/Km is the turnover number divided by the Michaelis constant. Turning to B1, the Km is given as 17.4 mM, the kcat was determined as 7.1 s⁻¹ and the kcat/Km was 410 M⁻¹ s⁻¹.

For another data set, the system named is T1, NCC(=O)O.
T1 construct: E. coli BL21(DE3); HisTrap, Resource Q, Superdex 200
Put plainly: purified protein. Format: biochemical, Pseudomonas putida. The following applies: glycine varied 2.5-50 mM, co-substrate 4-methylsulfonylbenzaldehyde, PLP, HEPES-NaOH pH 8.0, 30 °C.
Consider L-PpTA (Pseudomonas putida KT2440; A9L), for which the Km was 14.6 mM, the kcat turned out to be 7.7 s⁻¹ and the kcat/Km stood at 530 M⁻¹ s⁻¹.

Regarding L-PpTA (Pseudomonas putida KT2440; A9V), the Km is 13.8 mM, the kcat amounted to 7.2 s⁻¹ and the kcat/Km was found to be 520 M⁻¹ s⁻¹.

Regarding “L-PpTA (Pseudomonas putida KT2440; E147D)”, the Km worked out at 15.1 mM, the kcat amounted to 6.5 s⁻¹ and the kcat/Km is 430 M⁻¹ s⁻¹.

Turning to “L-PpTA (Pseudomonas putida KT2440; H133N)”, the Km stood at 12.8 mM, the kcat was 12.7 s⁻¹ and the kcat/Km worked out at 990 M⁻¹ s⁻¹.

For “L-PpTA (Pseudomonas putida KT2440; H133W)”, the Km stood at 12.9 mM, the kcat is 12.3 s⁻¹ and the kcat/Km turned out to be 950 M⁻¹ s⁻¹.

On to “L-PpTA (Pseudomonas putida KT2440; H133Y)”, for which the Km was found to be 22.6 mM, the kcat came out at 12.5 s⁻¹ and the kcat/Km turned out to be 550 M⁻¹ s⁻¹.

With “L-PpTA (Pseudomonas putida KT2440; Y13C)”, the Km worked out at 24.7 mM, the kcat amounted to 13.9 s⁻¹ and the kcat/Km amounted to 560 M⁻¹ s⁻¹.

“L-PpTA (Pseudomonas putida KT2440; Y13K)”: the Km came out at 19.6 mM, the kcat came to 10.4 s⁻¹ and the kcat/Km is 530 M⁻¹ s⁻¹.

As for “L-PpTA (Pseudomonas putida KT2440; Y312E)”, the Km stood at 25.3 mM, the kcat turned out to be 15.3 s⁻¹ and the kcat/Km worked out at 600 M⁻¹ s⁻¹.

“L-PpTA (Pseudomonas putida KT2440; Y312R)”: the Km stood at 20.1 mM, the kcat came out at 12.2 s⁻¹ and the kcat/Km turned out to be 610 M⁻¹ s⁻¹.
